Results from publication PMC3178552 (PLoS Pathogens, 2011).
Where two headings read alike, the source gives them in different places.

Experiments:
[1] = target: T1, vesicular stomatitis virus nucleoprotein lacking its 21 N-terminal residues (N[change]), MBP tag removed (vesicular stomatitis virus, UniProt P03521 22-422); assay: SEC-MALS; conditions: both partners purified
[2] = target: T1, vesicular stomatitis virus …
SEC = target: the molecule itself; assay: SEC
[3] = target: P60: the first 60 amino acids of VSV phosphoprotein P, a two-amino acid linker and a C-terminal His6-tag (vesicular stomatitis virus, UniProt P03520 1-60); assay: NMR titration; conditions: both partners purified

B1: full-length VSV phosphoprotein P dimer (natural protein)
chain: MDNLTKVREYLKSYSRLDQAVGEIDEIEAQRAEKSNYELFQEDGVEEHTKPSYFQAADDSDTESEPEIEDNQGLYAQDPEAEQVEGFIQGPLDDYADEEVDVVFTSDWKPPELESDEHGKTLRLTSPEGLSGEQKSQWLSTIKAVVQSAKYWNLAECTFEASGEGVIMKERQITPDVYKVTPVMNTHPSQSEAVSDVWSLSKTSMTFQPKKASLQPLTISLDELFSSRGEFISVGGDGRMSHKEAILLGLRYKKLYNQARVKYSL
In the case of B1, the “stoichiometry N” value [1] is reported as 2 P molecules per NΔ21.

In the case of VREYLKSYSRLDQAVGEIDEIEAQRAEKSNYELF [shorter peptide encompassing residues 7 to 40 of P], the “stoichiometry N” value [2] is reported as 1.

B2: N[change] in fusion with an N-terminal maltose binding protein tag (MBP-N[change]) (domain or fragment)
chain: EDPVEYPADYFRKSKEIPLYINTTKSLSDLRGYVYQGLKSGNVSIIHVNSYLYGALKDIRGKLDKDWSSFGINIGKAGDTIGIFDLVSLKALDGVLPDGVSDASRTSADDKWLPLYLLGLYRVGRTQMPEYRKKLMDGLTNQCKMINEQFEPLVPEGRDIFDVWGNDSNYTKIVAAVDMFFHMFKKHECASFRYGTIVSRFKDCAALATFGHLCKITGMSTEDVTTWILNREVADEMVQMMLPGQEIDKADSYMPYLIDFGLSSKSPYSSVKNPAFHFWGQLTALLLRSTRARNARQPDDIEYTSLTTAGLLYAYAVGSSADLAQQFCVGDNKYTPDDSTGGLTTNAPPQGRDVVEWLGWFEDQNRKPTPDMMQYAKRAVMSLQGLREKTIGKYAKSEFDK
B2: binds (SEC); binds [3].
